Measurements: article PMC8800040

Biological target: aflibercept (human)
Assay: SPR

**Q.** human VEGF-A165 (ligand) was tested. Which Kd did it give?
**A.** 0.0147 nM

**Q.** What about the kon of the same substance?
**A.** 1.16e+07 M⁻¹ s⁻¹
